Experimental data from patent publication US20220048991A1 (BIOND BIOLOGICS, published 2022).

Tests used:
[1] = target: T1, human ILT2 fused to mouse CD3 zeta chain, on BW cells (human; mouse); assay: cell-based or functional assay
recombinant ILT2 (human) [2] = target: T2, recombinant ILT2 (human) (human, UniProt Q8NHL6 24-461); assay: SPR (Biacore T200); KD relative to Control (chimeric 15G8)
T2 construct: also called recombinant ILT2 peptide; ILT2 protein
Description: (§1) During grafting of the 15G8 CDRs, five heavy chains and four kappa light chains were generated. These chains were designated VH1-5 and Vk1-4. By combining each heavy chain with each light chain twenty different resultant antibodies are possible. All twenty possible antibodies were transiently expressed in HEK EBNA cells, and the supernatants were tested for binding to recombinant ILT2 peptide using a Biacore T200. The chimeric 15G8 antibody was used as control.

[3] = target: T3, biotinylated recombinant human ILT2-Fc (human, UniProt Q8NHL6 24-458, limits assumed, conjugated with biotin (sites not given)); assay: flow cytometry blocking assay: ILT2-biotin binding to cells expressing HLA-G [right panel]
T3 construct: Bought (Sino Biologics); the order of the parts is therefore uncertain; also called ILT2-biotin; biotinylated ILT2; not shown: Fc portion of human IgG1
Description: (§2) Flow cytometry blocking assay—Recombinant human ILT2 protein fused with the Fc portion of human IgG1 at the N terminal was conjugated with biotin (Innova bioscience). A total of 5×10⁵ A375/HLA-G1 cells were incubated in a volume of 100 μL in the presence of anti-ILT2 clone #1 or isotype matched control mAb and ILT2-Fc conjugated with biotin (10 μg/mL) for 30 minutes at room temperature. After several washing steps, streptavidin-PE was added at a final concentration of 0.2 μg/mL and incubated for 30 min on ice followed by FACS analysis.
(§3) The ability of the generated anti-ILT2 antibodies to block the interaction between HLA-G and ILT2 was tested using four different assays. First, a blocking flow cytometry assay was performed. HLA-G transfected A375 cells were incubated with biotinylated ILT2 in the presence of the antibodies of the present disclosure and a positive control antibody. The commercially available anti-ILT2 antibody GHI/75 (BioLegend, Cat. No. 333704) was used as the positive control. The binding of ILT2-biotin to the cells was determined using Streptavidin-PE by flow cytometry analysis (FIG. 8A). The percent of blocking was determined by normalizing to a negative control (ILT2 binding in the presence of control IgG). […] The percentage of blocking was calculated at various concentrations of antibody (FIG. 8C).

[4] = target: T3, biotinylated recombinant human ILT2-Fc; assay: flow cytometry blocking assay: ILT2-biotin binding to cells expressing HLA-G
Description: as §2, §3

[5] = target: T3, biotinylated recombinant human ILT2-Fc; assay: B2M blocking ELISA: plate-bound recombinant human B2M-His, biotinylated ILT2-Fc at 20 µg/ml, titrated antibody, streptavidin-HRP; blocked ligand B2M
Description: To test whether 15G8 can block the interaction between ILT2 and B2M, a B2M blocking ELISA was performed. 96 well nickel plates were coated with recombinant human B2M-His tag (3 μg/ml; Sino Biologics, 11976-H08H) overnight. Biotinylated ILT2-Fc (20 μg/ml; Sino Biologics, 1614-H02H; Innova Biosciences, 370-0010) was added for 2 hours at 37° C., which allowed ILT2 binding to B2M, in the presence or absence of titrated BND-22 or an irrelevant antibody (anti human CD28, Biolegend, 302934) (Ab range of 80-0.1 μg/ml, ×3 fold). ILT2 binding to B2M was detected by HRP conjugated streptavidin (R&D Systems, DY998). The absorbance was measured using an ELISA Reader (Biotek Synergy-H1 plate reader).

recombinant ILT2 (human) [6] = target: T2, recombinant ILT2 (human); assay: SPR (Biacore T200), HEK EBNA supernatants on recombinant ILT2 peptide
Description: as §1

[7] = target: T1, human ILT2 fused to mouse CD3 zeta …; assay: flow cytometry on BW cells transfected with human ILT2; fold above background (FAB) [left panel]
[8] = target: T3, biotinylated recombinant human ILT2-Fc; assay: flow cytometry blocking assay: ILT2-biotin binding to cells expressing HLA-G [left panel]
Description: as §2, §3

T2 sequence (Q8NHL6 24-461 limits assumed): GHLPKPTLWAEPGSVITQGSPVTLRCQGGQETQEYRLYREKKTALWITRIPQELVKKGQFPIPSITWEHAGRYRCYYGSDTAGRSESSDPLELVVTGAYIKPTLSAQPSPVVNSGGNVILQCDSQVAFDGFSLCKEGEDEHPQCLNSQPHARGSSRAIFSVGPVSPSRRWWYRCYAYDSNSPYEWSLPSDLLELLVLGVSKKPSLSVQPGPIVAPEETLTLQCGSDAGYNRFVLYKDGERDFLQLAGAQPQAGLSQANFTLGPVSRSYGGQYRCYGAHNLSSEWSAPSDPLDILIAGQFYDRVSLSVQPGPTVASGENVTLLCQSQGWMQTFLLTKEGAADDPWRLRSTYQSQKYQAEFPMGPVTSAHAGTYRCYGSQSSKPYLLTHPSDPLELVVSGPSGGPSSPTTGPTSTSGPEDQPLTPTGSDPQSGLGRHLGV
T3 sequence (Q8NHL6 24-458 limits assumed): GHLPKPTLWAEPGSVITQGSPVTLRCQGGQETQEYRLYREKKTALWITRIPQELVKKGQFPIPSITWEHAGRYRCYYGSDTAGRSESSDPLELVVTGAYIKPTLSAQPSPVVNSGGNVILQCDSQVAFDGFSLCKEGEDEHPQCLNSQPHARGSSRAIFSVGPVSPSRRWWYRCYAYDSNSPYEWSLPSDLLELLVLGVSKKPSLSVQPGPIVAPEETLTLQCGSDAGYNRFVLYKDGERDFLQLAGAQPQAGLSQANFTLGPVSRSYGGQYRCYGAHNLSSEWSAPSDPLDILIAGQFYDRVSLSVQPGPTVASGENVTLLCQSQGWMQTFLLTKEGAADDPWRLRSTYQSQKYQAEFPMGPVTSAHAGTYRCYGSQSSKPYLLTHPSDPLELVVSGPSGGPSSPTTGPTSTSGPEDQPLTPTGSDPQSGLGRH
T1 sequence (P24161 other isoform, or with tags, fused parts or gaps limits assumed): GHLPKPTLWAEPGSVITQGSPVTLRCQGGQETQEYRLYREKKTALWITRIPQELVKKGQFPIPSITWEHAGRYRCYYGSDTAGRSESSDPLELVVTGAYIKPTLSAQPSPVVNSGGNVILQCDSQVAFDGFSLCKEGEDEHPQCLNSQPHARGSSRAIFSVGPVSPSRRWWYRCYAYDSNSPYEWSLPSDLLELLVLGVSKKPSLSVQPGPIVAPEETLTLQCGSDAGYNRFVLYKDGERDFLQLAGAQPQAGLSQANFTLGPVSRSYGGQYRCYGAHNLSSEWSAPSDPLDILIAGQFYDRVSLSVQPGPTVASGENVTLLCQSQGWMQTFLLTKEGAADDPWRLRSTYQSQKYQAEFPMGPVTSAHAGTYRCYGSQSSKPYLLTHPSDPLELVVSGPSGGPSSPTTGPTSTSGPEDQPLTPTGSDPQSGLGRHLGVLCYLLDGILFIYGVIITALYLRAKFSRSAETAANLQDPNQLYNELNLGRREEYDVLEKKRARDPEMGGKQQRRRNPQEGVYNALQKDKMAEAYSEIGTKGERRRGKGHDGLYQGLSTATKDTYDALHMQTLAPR

| IC50 (read off the curve) of Blocking (%) in the BW-ILT2 / A375-HLA-G mouse IL-2 reporter assay [1] | Relative KD (recombinant ILT2 (human) [2]) | IC50 (read off the curve) [3] | IC50 (read off the curve) [4] | IC50 (read off the curve) [5] | Kd (recombinant ILT2 (human) [6]) | koff (recombinant ILT2 (human) [6]) | kon (recombinant ILT2 (human) [6]) | EC50 (read off the curve) [7] | IC50 (read off the curve) [8] | Binder |
| --- | --- | --- | --- | --- | --- | --- | --- | --- | --- | --- |
| ~0.02 mg/L | 0.55 | ~0.2 mg/L | ~0.3 mg/L | ~8 mg/L | 6.94 nM | 0.00905 s⁻¹ | 1.3e+06 M⁻¹ s⁻¹ |  |  | 15G8-13 (humanized 15G8, VH1/Vk3, alanine variant A108) (antibody, human IgG4 S228P, kappa, V domains shown, Humanized IgG4 (S228P, L235E), kappa; also called 15G8 humanized antibody; BND-22) VH: DVQLQGSGPGLVKPSETLSLTCSVTGYSITSGYYWNWIRQFPGKKLEWMGYISYDGSNNYNPSLKNRITISRDTSKNQFSLKLNSVTAADTATYYCAHGYSYYYAMDAWGQGTSVTVSS VL: DIQMTQSPSSLSASVGDRVTITCRTSQDISNYLNWYQQKPGKAVKLLISYTSRLHSGVPSRFSGSGSGTDYTLTISSLQPEDFATYYCQQGNTLPTFGQGTKLEIKR |
|  |  |  |  |  |  |  |  | ~0.6 mg/L | ~0.6 mg/L | chimeric 19E3 (antibody, V domains shown, Chimera of murine 19E3; also called chimeric murine 19E3) VH: QVQLQQSGAELARPGASVKLSCKASGYTFTSYGISWVKQRTGQGLEWVGEIYPGSGNSYYNEKFKGKATLTADKSSSTAYMELRSLTSEDSAVYFCARSNDGYPDYWGQGTTLTVSS VL: DIQMTQSSSYLSVSLGGRVTITCKASDHINNWLAWYQQKPGNAPRLLISGATSLETGVPSRFSGSGSGKDYTLSITSLQTEDVATYYCQQYWSTPWTFGGGTKLEIK |
